This note sets out measurements from the nanobody polyreactivity screen of Harvey et al. (2022).

The nature of this data set: yeast display, Sf9 membrane polyspecificity reagent, FACS + sequencing; frameworks hold sequencing errors. A digest of the protocol:
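A nanobody's polyreactivity label depends on the gate it was sorted from. Yeast display cells were stained with 10% biotinylated, detergent-solubilized Sf9 membrane reagent for 1 hour at 4 °C, enriched on streptavidin microbeads and sorted by FACS. The low and high (top ~1%) gates were set on anti-HA fluorescence for expression and streptavidin fluorescence for reagent binding.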
As for “QVQLVESGGGLVQAGGSLRLSCAASGLTFYQYAMGWYRQAPGKERELVAGISSGGSTKYADSVKGRFTISRDNAKNTVYLQMNSLKPEDTAVYYCAARFCAFRKGYYYWGQGTQVTVSS”, the “polyreactivity (PSR sort gate)” value was “high polyreactivity”.
For “QVQLVESGGGLVQAGGSLRLSCAASGLTFYQYTMGWYRQAPGKERELVAAISRRGGSTYYADSVKGRFTISRDNAKNTVYLQMNSLKPEDTAVYYCAARALRYSSDFDYWGQGTQVTVSS” the value was “high polyreactivity”; for “QVQLVESGGGLVQAGGSLRLSCAASGLTFYRYAMGWYRQAPGKEMELVAAIRVSGNTYYADSVKGPFTISRDNAKNTVYLEMNCLKPEDTAVYYCAAKPYYFYGMDYWGQGTQVTVSS”, “high polyreactivity”; for “QVQLVESGGGLVQAGGSLRLSCAASGLTFYRYAMGWYRQAPGKERELVAAIRSNVVTTYYADSVKGRFTISRDNAKNTVYLQMNSLKPEDTAVYYCNAVSYSFPIHRVRPTWYDYWGQGTQVTVSS”, “high polyreactivity”.
For “QVQLVESGGGLVQAGGSLRLSCAASGLTFYRYAMGWYRQSPGKERELVAAISRGGTSTYYADSVKGRFTISRDNAKNTVYLQMSSLKPEDTAVYYCARLVKPYNYGRYGYWGQGTQVTVSS” the value was “high polyreactivity”.
For “QVQLVESGGGLVQAGGSLRLSCAASGLTFYSNAMGWYIQAPGKERELVASISKRGATTYYADSVKGRFTISRDIAKYTVYLQMNSQKAEDTAVYYCAAEYLRNQELGYQGVAILYVFWGQGTQVTVSS” the value was “low polyreactivity”; for “QVQLVESGGGLVQAGGSLRLSCAASGLTFYSNAMGWYRQAPGKERELVAAITWRSVRTYYADSVKGRFTISRDNAKNTVYLQMNSLKPEDTAVYYCAAASASRHGEYDYWGQGTQVTVSS”, “low polyreactivity”; for “QVQLVESGGGLVQAGGSLRLSCAASGLTFYSNAMGWYRQAPGKERELVASISNGGSTNYADSVKGRFTISRDNAKNTVYLQMNSLKPEDTAVYYCAAEYSLRHRRYTFFAEMDYWGQGTQVTVSS”, “low polyreactivity”.
As for “QVQLVESGGGLVQAGGSLRLSCAASGLTFYSYAMGWYRQAPGKERELVAAISNTGGTNYADSVKGRFTISRDNAKNNVYFQMTSLKPEDTAVYYCNRTFYHYLYRGYGYWGQGTQVTVSS”, the “polyreactivity (PSR sort gate)” value is recorded as “low polyreactivity”.
The entry for “QVQLVESGGGLVQAGGSLRLSCAASGLTFYVYAMGWYRQAPGKERELVAAISSGGRTYYADSVKGRFTISRDNAKNTVYLQMNSLKPEDTAVYYCAARSPVWRTTEDYWGQGTQVTVSS” is “high polyreactivity”.
The entry for “QVQLVESGGGLVQAGGSLRLSCAASGLTFYYYAMGWYRQAPGKERELVAAISIGGSTDYADSVKGRFTISRDNAKNTVYLQMNSLKPEDTAVYYCNVDDNSEYDYWGQVTQVTVSS” is “low polyreactivity”; for “QVQLVESGGGLVQAGGSLRLSCAASGLTFYYYAMGWYRQAPGKERELVAAITWSGASTYYADSVKGRFTISRDNAKNTVYLQMNSLKPEDTAVYYCNARVWGGVEFGYWGQGTQVTVSS” it is “high polyreactivity”; for “QVQLVESGGGLVQAGGSLRLSCAASGLTFYYYAMGWYRQAPGKERELVATISSGGNTNYADSVKGRFTISRDNAMNTVYLQMNSLKPEDTAVYYCNADRWFHYYRYNYWGQGTQVTVSS” it is “high polyreactivity”.
The entry for “QVQLVESGGGLVQAGGSLRLSCAASGLTFYYYVMGWYRQAPGKERELVAAISSSGGNTYYADSVKGRFTISRDNEKNTVYLQMNSLKPEDTAVYYCAAGQKRTLDNYWGQGTQVTVSS” is “high polyreactivity”; for “QVQLVESGGGLVQAGGSLRLSCAASGLTIAYYDMGWYRPAPGKERELVARISRGGSTNYADSVKGRFTISRDNAKNTVYLQMNSLKPEDTAVYYCNTGYVYPYKILMDYWGQGTQVTVSS” it is “low polyreactivity”.
As for “QVQLVESGGGLVQAGGSLRLSCAASGLTIDRNAMGWYRQAPGKERELVAAINWRGSRTYYADSVKGRFTISRDNAKNTVYLQMNSLKPEDTAVYYCAADWHTTYDYWGQVTQVTVSS”, the “polyreactivity (PSR sort gate)” value was “high polyreactivity”.
For “QVQLVESGGGLVQAGGSLRLSCAASGLTIRYNAMGWYRQAPGKERELVARISRNGGRTYYADSVKGRFTISRDNAKNTVYLQMKSLKPEDTAVNYCNVVYFVTTSPGYDYWGQGTQVTVSS” the value was “high polyreactivity”; for “QVQLVESGGGLVQAGGSLRLSCAASGLTISTYAMGWYIQAPGKDRELVATITYSGSSTYADSVKGRFTISRDNAKNTVYLQMNSLKPEDTAVYYCAAFTYHGNPSEYYPDTVGFYYWGQGTQVSVSS”, “low polyreactivity”; for “QVQLVESGGGLVQAGGSLRLSCAASGLTIVNYAMGWYRQAPGKERELVAAITVNGGRTYYADSVKGRFTISRDNAKNTVYLQMNSLKPEDTAVYYCAAVYYRHWYTYSSDYWGQGTQVTVSS”, “high polyreactivity”.
For “QVQLVESGGGLVQAGGSLRLSCAASGLTLAPYAMGWYRQAPGKERELVAVITRRGGRTYYADSVKGRFTISRDNAKNTVYLQMNSLKPEDTAVYYCNADTANYADGLDYWGQGTQVTVSS” the value was “low polyreactivity”.
For “QVQLVESGGGLVQAGGSLRLSCAASGLTLFRNAMGWYRQAPGKERELVAAISSGGSTYYADSVKGRFTISRDNAKNTVYLQMNSLKPEDTAVYYCATDSVSPVEEEDYWGQGTQVTVSS” the value was “low polyreactivity”; for “QVQLVESGGGLVQAGGSLRLSCAASGLTLHGNAMGWYRQAPGKERELVATITSSGGSTFYADSVKGRFTISRDNAKNTVYLQMNSLKPEDTAVYYCNADAPYSDDYYVRFDYWGQGTQVTVSS”, “low polyreactivity”; for “QVQLVESGGGLVQAGGSLRLSCAASGLTLQGYVMGWSRQAPGKDRELVATISYSGGSTRYADSVKGRFTISRDNAKNTVYLQMNSLNPEDTAVYYCNRDSFHYYAERDYWGQGTQVTVSS”, “low polyreactivity”.
As for “QVQLVESGGGLVQAGGSLRLSCAASGLTLQPYAMGWSRQAPRNERELVAAITSGGSTYYADSVKGRFTISRDNAKNTVYLQMNSLKPEDTAVYYCAATVSYDFGYVAVSYDYWGQGTQVTVSS”, the “polyreactivity (PSR sort gate)” value was “low polyreactivity”.
For “QVQLVESGGGLVQAGGSLRLSCAASGLTLQRYTMGWYRQAPGKERELVAAISRSGGGTYYADSVKGRFTISRDNAKNTVYLQMNSLKPEDTAVYYCNKVRGAVPWFDMDYWGQGTQVTVSS” the value was “high polyreactivity”; for “QVQLVESGGGLVQAGGSLRLSCAASGLTLRNYAMGWYRQAPGKERELVAAITTGGGRTYYADSVKGRFTISRDNAKNTVYLQMNSLKPEDTAVYYCAAERAILSSDKQSLWRFDYWGQGTQVTVSS”, “low polyreactivity”; for “QVQLVESGGGLVQAGGSLRLSCAASGLTLRRYAMGWYRQAPGKETELVAGITSGGSTYYADSVKGRFTISRDNAKNTVYLQMYSLKPEDTAVYYCAARVRKYYKPYGYWGQGTQVTVSS”, “high polyreactivity”.
The entry for “QVQLVESGGGLVQAGGSLRLSCAASGLTLSGNAMGWYRQAPGKERELVAAITGRGGSTTYADSVKGRFTISRDNAKNTVYLLMNSLKPEDTAVYYCAADGRWYWDYEYWGQGTQVTVSS” is “low polyreactivity”; for “QVQLVESGGGLVQAGGSLRLSCAASGLTLSGYAMGWYRQAPGKERELVAAISYTGGSTYYADSVKGRFTISRDNAKNTVYLQMNSLKPEDTAVYYCAARAGSRSFDYWGQGTQVTVSS” it is “high polyreactivity”; for “QVQLVESGGGLVQAGGSLRLSCAASGLTLSYNAMGWYRQAPGKERELVAAIRSGGSTNYADSVKGRFTISRDNAKNTVYLQMNSLKPEDTAVYYCAARFRYLPYRYGRYQSGYEYWGQGTQVTVSS” it is “high polyreactivity”.
